Data set [1] concerns the target T1, cELF-1 (Gallus gallus).
T1 chain: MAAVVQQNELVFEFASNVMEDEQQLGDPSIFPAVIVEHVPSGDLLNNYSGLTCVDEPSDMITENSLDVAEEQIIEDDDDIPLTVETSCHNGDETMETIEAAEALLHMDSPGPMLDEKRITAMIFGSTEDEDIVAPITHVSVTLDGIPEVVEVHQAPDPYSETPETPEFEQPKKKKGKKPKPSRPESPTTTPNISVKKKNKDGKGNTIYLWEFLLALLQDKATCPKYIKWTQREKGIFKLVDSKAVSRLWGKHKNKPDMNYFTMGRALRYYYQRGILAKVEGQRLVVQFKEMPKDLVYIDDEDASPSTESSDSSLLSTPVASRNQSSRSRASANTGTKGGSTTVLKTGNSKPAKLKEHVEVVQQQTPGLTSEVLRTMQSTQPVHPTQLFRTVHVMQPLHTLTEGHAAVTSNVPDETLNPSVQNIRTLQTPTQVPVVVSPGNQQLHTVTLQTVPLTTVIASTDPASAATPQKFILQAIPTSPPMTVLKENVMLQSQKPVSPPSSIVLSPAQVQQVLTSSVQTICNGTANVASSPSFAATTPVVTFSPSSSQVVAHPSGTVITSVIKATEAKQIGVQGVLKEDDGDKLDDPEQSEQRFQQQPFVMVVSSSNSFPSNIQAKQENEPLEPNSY
The data set can be described thus: EMSA; anti-ELF-1 antibody interferes and supershifts; room temperature. The following applies: tags: none (TNT reticulocyte lysate); label: 32P. On the procedure:
The ability of in vitro translated human ELF-1 and cELF-1 to bind to the same Tie2 Ets sites was also examined. As is shown in FIG. 8A, both human and chicken ELF-1 form similar DNA-protein complexes with the Tie2 Ets sites (lane 2 and 3). The ability of an ELF-1 specific antibody to interfere with the formation of these complexes was also tested. This antibody was able to interfere with complex formation of both human and chicken ELF-1. […] Because several Ets factors may potentially bind to the Tie2 Ets site in vivo in the developing chicken we performed gel shift assays with the Tie2 Ets probe and cell extracts from the chicken CAM. As is shown in FIG. 8B, lane 3, a similar size complex is formed compared to the in vitro translated cELF-1.
(§1) Briefly, 20-μL samples containing 2 μL of in vitro-translated products or cell extracts were incubated with a solution containing ³²P-labeleddouble-stranded probes (30 000 cpm). Samples were incubated in the presence or absence of increasing amounts of cold competitor (5 or 50 ng) for 15 to 20 minutes at room temperature and run on a 4% polyacrylamide gel (acrylamide-bisacrylamide, 29:1) containing a buffer of 0.25×TBE (22.5 mmol/L Tris borate and 0.5 mmol/L EDTA).
Background: A gel shift assay detects complexes by their altered migration in electrophoresis.

The target of data set [2] is T1, cELF-1. The experiment in a line: competition; 5 or 50 ng cold competitor vs Tie1 P2 probe; unable to compete. The following applies: tags: none (TNT reticulocyte lysate). On the procedure: (§2) The ability of cELF-1 to bind to conserved Ets sites in the Tie1 promoter was examined. There are two Ets site doublets, P1 and P2 that are highly conserved in this promoter. The ability of cELF-1 to bind to these Ets sites was tested. As is shown in FIG. 8C, cELF-1 binds well to both of these Ets sites. […] When both of the Ets site were mutated (Mut 1,2) the oligonucleotides were unable to compete for binding. When the first Ets site was mutated, Mut 1, it competed only weakly with binding of cELF-1 to the Tie1 P2 probe.
as §1

In data set [3] the target is T1, cELF-1. The experiment in a line: EMSA; binds well; room temperature. As to conditions: tags: none (TNT reticulocyte lysate); label: 32P. On the procedure: as §2, §1
The target of data set [4] is T1, cELF-1. The data set can be described thus: competition; 5 or 50 ng cold competitor vs Tie1 P2 probe; competes as well as wild type. As to conditions: tags: none (TNT reticulocyte lysate). As to the method: as §2, §1
For data set [5], the target named is T1, cELF-1. The experiment in a line: EMSA; binds well; wild type cold oligo competes. The following applies: tags: none (TNT reticulocyte lysate); label: 32P. On the procedure: as §2, §1

B1: Tie2 promoter Ets oligonucleotide (dsDNA)
DNA 1: TGCAAAGGAAACAGGAAAAAGGAACTTAAC
DNA 2: GTTAAGTTCCTTTTTCCTGTTTCCTTTGCA
On to B1, for which, in data set [1], the binding result is “binds”.

B2: Tie1 P2 Mut1,2 (dsDNA)
DNA 1: CCATCATTTAATCTTAATCCCCAG
DNA 2: CTGGGGATTAAGATTAAATGATGG
B2: the binding result in data set [2] was “no binding”.

B3: Tie1 P1 (dsDNA)
DNA 1: ACTGGCTTCCTCCCTTTCCTGTCTC
DNA 2: GAGACAGGAAAGGGAGGAAGCCAGT
Consider B3, for which the binding result in data set [3] is listed as “binds”.

B4: Tie1 P2 Mut2 (dsDNA)
DNA 1: CCATCATTTCCTCTTAATCCCCAG
DNA 2: CTGGGGATTAAGAGGAAATGATGG
B4: in data set [4], the binding result is reported as “binds”.

B5: Tie1 P2 (dsDNA)
DNA 1: CCATCATTTCCTCTTCCTCCCCAG
DNA 2: CTGGGGAGGAAGAGGAAATGATGG
Take B5: the binding result in data set [5] is “binds”.
